Laboratory results reported in patent US20210147519A1 (Regeneron, published 2021).

Key:
[1] = biological target: T1, native human complement component C1q protein purified from human serum (Quidel) (human, UniProt P02745 23-245; P02746 28-253; P02747 29-245); experiment: cell-based or functional assay
[2] = biological target: T1, native human complement component C1q …; experiment: cell-based or functional assay; remark: listed apart in the source
[3] = biological target: T2, IsdB expressed on the surface of S. aureus Wood 46 (Staphylococcus aureus); experiment: ELISA on plate-coated S. aureus Wood 46
T2 construct: whole, on cells
Method: Briefly, S. aureus Wood 46 was grown in RPMI overnight, washed in PBS and adjusted to an OD₆₀₀ of 0.25. MaxiSorp 96 well microtiter plates were coated overnight with 100 μl of S. aureus culture per well. Plates were washed and blocked with 3% BSA. […] Anti-human HRP conjugated secondary antibody was added to washed plates. Luminescence reagents (SuperSignal Pico) were then added to the wells and signal was detected in a plate reader (Victor X3 plate reader, Perkin Elmer) immediately. Luminescence values were analyzed by a four-parameter logistic equation over a 7-point response curve (GraphPad Prism) to determine the binding EC₅₀, of the antibodies.

[4] = biological target: T1, native human complement component C1q …; experiment: SPR Biacore, captured Ab, hC1q analyte, 25C
[5] = biological target: T1, native human complement component C1q …; experiment: SPR Biacore, captured Ab, hC1q analyte, 37C
[6] = biological target: T3, Recombinant bacterial IsdB expressed with a hexahistidine tag (IsdB-6xHis; REGN2655) (Staphylococcus aureus, UniProt A6QG30 42-613); experiment: SPR Biacore, captured Ab, IsdB-6xHis analyte, 25C
[7] = biological target: T3, Recombinant bacterial IsdB expressed …; experiment: SPR Biacore, captured Ab, IsdB-6xHis analyte, 37C
[8] = biological target: T1, native human complement component C1q …; experiment: competition ELISA, 6 nM biot-hC1q, competitor plate-coated hIgM
[9] = biological target: T1, native human complement component C1q …; experiment: competition ELISA, 6 nM biot-hC1q, competitor plate-coated hIgG2-k
[10] = biological target: T1, native human complement component C1q …; experiment: competition ELISA, 30 pM biot-hC1q, competitor plate-coated hIgG1-k
[11] = biological target: T1, native human complement component C1q …; experiment: competition ELISA, 30 pM biot-hC1q, competitor plate-coated hIgG3-k
[12] = biological target: T1, native human complement component C1q …; experiment: cell-based or functional assay; remark: listed apart in the source

T1 sequence (P02745 23-245 limits assumed, chain 1 of 3): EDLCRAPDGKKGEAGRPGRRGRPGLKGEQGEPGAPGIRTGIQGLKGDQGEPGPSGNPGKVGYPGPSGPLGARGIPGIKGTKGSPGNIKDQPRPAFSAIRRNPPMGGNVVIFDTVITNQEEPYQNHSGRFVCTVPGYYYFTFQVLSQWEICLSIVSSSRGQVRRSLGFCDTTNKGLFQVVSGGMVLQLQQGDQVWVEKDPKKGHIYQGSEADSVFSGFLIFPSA
T1 sequence (P02746 28-253 limits assumed, chain 2 of 3): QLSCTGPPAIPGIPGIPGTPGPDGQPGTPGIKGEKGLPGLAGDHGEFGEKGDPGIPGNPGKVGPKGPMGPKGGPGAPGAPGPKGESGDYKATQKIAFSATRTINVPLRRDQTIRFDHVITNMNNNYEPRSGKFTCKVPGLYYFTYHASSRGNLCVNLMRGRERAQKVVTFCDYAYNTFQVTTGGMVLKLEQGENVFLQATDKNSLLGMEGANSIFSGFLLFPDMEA
T1 sequence (P02747 29-245 limits assumed, chain 3 of 3): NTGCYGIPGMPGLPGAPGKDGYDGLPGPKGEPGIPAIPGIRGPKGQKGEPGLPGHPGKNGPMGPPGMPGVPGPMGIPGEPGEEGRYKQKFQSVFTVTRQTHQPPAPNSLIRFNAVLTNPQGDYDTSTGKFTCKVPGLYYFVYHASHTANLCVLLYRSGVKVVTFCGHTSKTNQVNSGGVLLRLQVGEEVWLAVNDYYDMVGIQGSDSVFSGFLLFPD
T2 sequence (Q2FZF0 41-613): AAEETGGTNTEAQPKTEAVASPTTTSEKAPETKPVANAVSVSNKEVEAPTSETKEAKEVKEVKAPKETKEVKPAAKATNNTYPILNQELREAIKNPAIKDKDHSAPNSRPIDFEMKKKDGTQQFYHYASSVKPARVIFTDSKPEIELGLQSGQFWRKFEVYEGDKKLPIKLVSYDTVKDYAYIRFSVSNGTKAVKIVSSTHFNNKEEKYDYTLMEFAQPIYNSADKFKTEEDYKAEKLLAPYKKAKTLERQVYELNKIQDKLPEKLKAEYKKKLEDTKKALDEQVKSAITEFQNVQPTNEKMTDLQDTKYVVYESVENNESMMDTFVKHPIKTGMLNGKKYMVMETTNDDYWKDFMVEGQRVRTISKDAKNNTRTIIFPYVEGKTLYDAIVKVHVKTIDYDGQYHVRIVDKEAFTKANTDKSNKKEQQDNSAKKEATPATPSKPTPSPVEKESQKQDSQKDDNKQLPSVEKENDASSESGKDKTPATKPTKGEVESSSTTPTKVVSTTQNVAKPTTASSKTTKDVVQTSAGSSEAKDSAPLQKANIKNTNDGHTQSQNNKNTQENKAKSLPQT
T3 sequence (A6QG30 42-613, tags left off): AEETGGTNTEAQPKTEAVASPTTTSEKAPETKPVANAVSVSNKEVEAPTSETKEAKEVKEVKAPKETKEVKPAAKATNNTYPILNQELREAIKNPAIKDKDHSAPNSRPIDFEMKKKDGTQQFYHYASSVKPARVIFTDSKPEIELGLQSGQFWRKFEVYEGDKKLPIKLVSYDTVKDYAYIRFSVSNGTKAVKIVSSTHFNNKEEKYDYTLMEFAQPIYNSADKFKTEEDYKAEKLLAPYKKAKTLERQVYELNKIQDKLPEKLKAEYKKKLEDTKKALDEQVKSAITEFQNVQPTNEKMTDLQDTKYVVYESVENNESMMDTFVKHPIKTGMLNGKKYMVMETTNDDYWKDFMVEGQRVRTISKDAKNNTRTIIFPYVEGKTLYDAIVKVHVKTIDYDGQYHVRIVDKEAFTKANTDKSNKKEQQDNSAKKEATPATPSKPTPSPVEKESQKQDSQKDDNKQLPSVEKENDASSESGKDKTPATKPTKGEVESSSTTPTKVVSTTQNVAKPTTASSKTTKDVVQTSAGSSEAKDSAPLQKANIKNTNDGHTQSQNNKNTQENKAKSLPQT

B1: H1H20636D (bispecific antibody, V domains shown)
VH 1: QLQLQESGPGLVKPSETLSLTCTVSGGSISSSSYYWVWIRQPPGKGLEWIGNIYFSGSTYYNPSLKSRVTITVDTSKNQFSLKMTSVTAADTAVYYCARPFYGSRGDYYYGMDVWGQGTTVTVSS
VH 2: EIVLTQSPGTLSLSPGERATLSCRASQNVRSGYLAWYQQKPGQAPRLLIYGTSTRVTGIPDRFSGFGSGTDFTLTISRLEPEDFAVYYCQQYGNSPLFTFGGGTKVEIK
VL: not shown
notes: also called anti-IsdB x anti-C1q bispecific antibody
B1 was tested, and the “Classical Pathway hemolysis assay % inhibition” value [1] was 0%, the “C1q deposition on S. aureus Cowan I EC50” value [2] was 8.54 nM and the EC50 [3] was 9.52 nM. The Kd [4] was 2.12 nM, the koff [4] was 0.0102 s⁻¹ and the kon [4] was 4.81e+06 M⁻¹ s⁻¹. The t½ [4] was 1.14 min, the Kd [5] was 2.73 nM and the koff [5] was 0.0179 s⁻¹. It also gave a kon [5] of 6.57e+06 M⁻¹ s⁻¹, a t1/2 [5] of 0.64 min and a Kd [6] of 4.98 nM. For the same binder, the koff [6] was 0.000378 s⁻¹, the kon [6] was 75800 M⁻¹ s⁻¹ and the t½ [6] was 30.6 min. The Kd [7] was 17.4 nM, the koff [7] was 0.00144 s⁻¹ and the kon [7] was 82800 M⁻¹ s⁻¹. For the same binder, the t1/2 [7] was 8.04 min, the “% Blockade with 600 nM bispecific Ab” value [8] was 11% and the “% Blockade with 600 nM bispecific Ab” value [9] was 20%. The “% Blockade with 30 nM bispecific Ab” value [10] was -29% and the “% Blockade with 30 nM bispecific Ab” value [11] was -11%.

B2: H1H20642D (bispecific antibody, V domains shown)
VH 1: B1 VH 1
VH 2: EVQLVESGGGLVQPGGSLRLSCAASGFTFSNYEMNWVRQAPGKGLDWVSYISTSGSVIYYADSVKGRFTISRDNAKNSLYLEMNSLRAEDTAVYYCARGYDFWSGSDYYYGMDVWGQGTTVTVSS
VL: not shown
notes: as for B1
For B2, the “Classical Pathway hemolysis assay % inhibition” value [1] was 99%, the “Classical Pathway hemolysis assay IC50” value [1] was 0.106 nM and the “inhibition of CDC of Daudi cells, IC50 [M]” value (“inhibition of CDC … [M]” below) [12] was 1e-08 M. The “inhibition of CDC of Daudi cells, Max % Inhibition” value (“inhibition … Max % Inhibition” for short) [12] was no less than 99%, the “C1q deposition on S. aureus Cowan I EC50” value [2] was 0.00586 nM and the EC50 [3] was 8.57 nM. The Kd [4] was 0.0114 nM, the koff [4] was 0.000196 s⁻¹ and the kon [4] was 1.72e+07 M⁻¹ s⁻¹. For the same binder, the t½ [4] was 58.9 min, the Kd [5] was 0.0501 nM and the koff [5] was 0.000412 s⁻¹. For the same binder, the kon [5] was 8.23e+06 M⁻¹ s⁻¹, the t1/2 [5] was 28 min and the Kd [6] was 8.26 nM. For the same binder, the koff [6] was 0.000501 s⁻¹, the kon [6] was 60700 M⁻¹ s⁻¹ and the t½ [6] was 23 min. The Kd [7] was 16.7 nM, the koff [7] was 0.00141 s⁻¹ and the kon [7] was 84600 M⁻¹ s⁻¹. For the same binder, the t1/2 [7] was 8.19 min, the “% Blockade with 600 nM bispecific Ab” value [8] was 72% and the IC50 [8] was 3.9 nM. The “% Blockade with 600 nM bispecific Ab” value [9] was 80%, the IC50 [9] was 5 nM and the “% Blockade with 30 nM bispecific Ab” value [10] was 71%. The IC50 [10] was 0.11 nM, the “% Blockade with 30 nM bispecific Ab” value [11] was 96% and the IC50 [11] was 0.37 nM.

B3: H1H20637D (bispecific antibody, V domains shown)
VH 1: B1 VH 1
VH 2: EIVMTQSPATLSVSPGERATLSCTASQTINSNLAWYQQRPGQAPRLLIYGASTRATGTPARFRGSGSGTEFTLTISSLLSEDFAVYYCQNYNNWPPGGPRTFGPGTKVDIK
VL: not shown
notes: as for B1
With B3 the “Classical Pathway hemolysis assay % inhibition” value [1] was 50%, the “inhibition of CDC … [M]” value [12] was greater than 1e-07 M and the “inhibition … Max % Inhibition” value [12] was 67%. For the same binder, the “C1q deposition on S. aureus Cowan I EC50” value [2] was 5 nM, the EC50 [3] was 11.3 nM and the Kd [4] was 1.54 nM. The koff [4] was 0.0124 s⁻¹, the kon [4] was 8.01e+06 M⁻¹ s⁻¹ and the t½ [4] was 0.93 min. For the same binder, the Kd [5] was 2.33 nM, the koff [5] was 0.0407 s⁻¹ and the kon [5] was 1.75e+07 M⁻¹ s⁻¹. The t1/2 [5] was 0.28 min, the Kd [6] was 9.34 nM and the koff [6] was 0.000468 s⁻¹. It also gave a kon [6] of 50100 M⁻¹ s⁻¹, a t½ [6] of 24.7 min and a Kd [7] of 17.4 nM. It also gave a koff [7] of 0.00149 s⁻¹, a kon [7] of 85100 M⁻¹ s⁻¹ and a t1/2 [7] of 7.78 min. The “% Blockade with 600 nM bispecific Ab” value [8] was 88%, the IC50 [8] was 71 nM and the “% Blockade with 600 nM bispecific Ab” value [9] was 70%. For the same binder, the IC50 [9] was 100 nM, the “% Blockade with 30 nM bispecific Ab” value [10] was -3% and the “% Blockade with 30 nM bispecific Ab” value [11] was -2%.

B4: H1H20641D (bispecific antibody, V domains shown)
VH 1: B1 VH 1
VH 2: QVQLVESGGGVVQPGRSLRLSCAASGFTFSNYGMHWVRQAPGKGLEWLAVIYYDGIKRYYGDSVQGRFIISRDNSKNTLYLQMNSLRDEDTAVYYCARAFSAAGPYNYYYAMDVWGQGTTVTVSS
VL: not shown
notes: as for B1
In the case of B4, the “Classical Pathway hemolysis assay % inhibition” value [1] is reported as 0%, the “inhibition of CDC … [M]” value [12] is reported as greater than 1e-06 M and the “inhibition … Max % Inhibition” value [12] is reported as 33%. For the same binder, the “C1q deposition on S. aureus Cowan I EC50” value [2] was 1.29 nM, the EC50 [3] was 10.3 nM and the Kd [4] was 0.154 nM. The koff [4] was 0.00068 s⁻¹, the kon [4] was 4.38e+06 M⁻¹ s⁻¹ and the t½ [4] was 17.1 min. It also gave a Kd [5] of 0.18 nM, a koff [5] of 0.00027 s⁻¹ and a kon [5] of 1.5e+06 M⁻¹ s⁻¹. For the same binder, the t1/2 [5] was 42.9 min, the Kd [6] was 6.02 nM and the koff [6] was 0.000438 s⁻¹. It also gave a kon [6] of 72800 M⁻¹ s⁻¹, a t½ [6] of 26.4 min and a Kd [7] of 14.7 nM. For the same binder, the koff [7] was 0.00141 s⁻¹, the kon [7] was 95900 M⁻¹ s⁻¹ and the t1/2 [7] was 8.19 min. The “% Blockade with 600 nM bispecific Ab” value [8] was 14%, the “% Blockade with 600 nM bispecific Ab” value [9] was 19% and the “% Blockade with 30 nM bispecific Ab” value [10] was -17%. The “% Blockade with 30 nM bispecific Ab” value [11] was -13%.

B5: H1H20638D (bispecific antibody, V domains shown)
VH 1: B1 VH 1
VH 2: DIQMTQSPSSLSASIGDRVTITCRTSQDINNYLAWYQQKPGKVPKLLIFSASTLQSGVPSRFSGSGFGTDFTFIISSLQPEDVATYFCQKYDSGRGLSFGGGTKVEIK
VL: not shown
notes: as for B1
In the case of B5, the “Classical Pathway hemolysis assay % inhibition” value [1] is reported as 24%, the “inhibition of CDC … [M]” value [12] is reported as 1e-07 M and the “inhibition … Max % Inhibition” value [12] is reported as no less than 99%. The “C1q deposition on S. aureus Cowan I EC50” value [2] was 2.55 nM, the EC50 [3] was 10.4 nM and the Kd [4] was 1.28 nM. It also gave a koff [4] of 0.00511 s⁻¹, a kon [4] of 4.01e+06 M⁻¹ s⁻¹ and a t½ [4] of 2.26 min. For the same binder, the Kd [5] was 1.98 nM, the koff [5] was 0.011 s⁻¹ and the kon [5] was 5.53e+06 M⁻¹ s⁻¹. The t1/2 [5] was 1.05 min, the Kd [6] was 10.8 nM and the koff [6] was 0.000498 s⁻¹. For the same binder, the kon [6] was 46200 M⁻¹ s⁻¹, the t½ [6] was 23.2 min and the Kd [7] was 17.8 nM. The koff [7] was 0.00144 s⁻¹, the kon [7] was 80900 M⁻¹ s⁻¹ and the t1/2 [7] was 8.03 min. The “% Blockade with 600 nM bispecific Ab” value [8] was 28%, the “% Blockade with 600 nM bispecific Ab” value [9] was 33% and the “% Blockade with 30 nM bispecific Ab” value [10] was -30%. The “% Blockade with 30 nM bispecific Ab” value [11] was -25%.

B6: H1H20632D (bispecific antibody, V domains shown)
VH 1: EVQLVESGGGLVQPGRSLRLSCTTSGFTFDDYAMHWVRQVPGQGLEWVAGLSWNSDTIGYADSVKGRFTISRDNAKNSLYLQMKSLKAEDTALYYCTKDFYHSLNNWNYYYFDYWGQGTLVTVSS
VH 2: QVQLVESGGGVVQPGRSLRLSCAASGFTFSSYGMHWVRQAPGKGLEWVAVIWYDGSNKNYADSVKGRFTISRDSSKNTLYLQMNSLRAEDTAVYYCARENSEGYYYGMDVWGQGTTVTVSS
VL: not shown
notes: as for B1
B6 was tested, and the “Classical Pathway hemolysis assay % inhibition” value [1] was 100%, the “Classical Pathway hemolysis assay IC50” value [1] was 1.78 nM and the “inhibition of CDC … [M]” value [12] was 2.3e-07 M. The “inhibition … Max % Inhibition” value [12] was no less than 99%, the “C1q deposition on S. aureus Cowan I EC50” value [2] was 0.529 nM and the EC50 [3] was 1.08 nM. The Kd [4] was 0.294 nM, the koff [4] was 0.00318 s⁻¹ and the kon [4] was 1.08e+07 M⁻¹ s⁻¹. For the same binder, the t½ [4] was 3.64 min, the Kd [5] was 0.175 nM and the koff [5] was 0.00871 s⁻¹. It also gave a kon [5] of 4.99e+07 M⁻¹ s⁻¹, a t1/2 [5] of 1.33 min and a Kd [6] of 2.21 nM. The koff [6] was 0.000255 s⁻¹, the kon [6] was 115000 M⁻¹ s⁻¹ and the t½ [6] was 45.2 min. It also gave a Kd [7] of 3.41 nM, a koff [7] of 0.000527 s⁻¹ and a kon [7] of 154000 M⁻¹ s⁻¹. For the same binder, the t1/2 [7] was 21.9 min, the “% Blockade with 600 nM bispecific Ab” value [8] was 97% and the IC50 [8] was 18 nM. The “% Blockade with 600 nM bispecific Ab” value [9] was 88%, the IC50 [9] was 23 nM and the “% Blockade with 30 nM bispecific Ab” value [10] was 90%. For the same binder, the “% Blockade with 30 nM bispecific Ab” value [11] was 86% and the IC50 [11] was 83 nM.
